Values of other authors in article PMC3078979.

Biological target: Gamide (amidated gastrin) (Homo sapiens) (UniProt P01350)
Experiment: ultracentrifugation

Kd: 6.4 µM
Substance: apo-transferrin (from UniProt P02787)
